Laboratory results reported in article PMC12700550, “DLL4^+ neutrophils promote Notch1-mediated endothelial PANoptosis to exacerbate acute lung injury in sepsis” (The Journal of Clinical Investigation, 2025).
Values joined by “and” are separate entries in the source; they are usually repeats but may differ in a detail not shown here. Equal values may be shown once.

Assays:
C57BL/6 mice, CLP sepsis = conditions: mouse, in vivo, 10 mg/kg
Protocol: Sepsis was induced in mice by cecal ligation and puncture (CLP) as described previously ([45], [46]). Mice were anesthetized with isoflurane to a surgical plane and placed in a supine position. CLP was performed through a midline laparotomy. The abdomen was shaved and disinfected. Through a 2 cm midline incision, the cecum was exposed and then ligated with a 4-0 silk suture 1 cm proximal from the distal cecal extremity. For 20-hour CLP experiments, the cecum was punctured twice with a 22-gauge needle. A small amount of cecal content was extruded through both holes, and the ligated cecum was returned to the peritoneal cavity. The wound was closed in layers. For 10-day sepsis survival studies, the cecum was punctured once with a 22-gauge needle. A small amount of cecal content was extruded. Mice were allocated to the vehicle and adoptive transfer of DLL4^+ neutrophils or DLL4^– neutrophils groups. Adoptive transfer mice received a retro-orbital injection of 1 × 10^6 cells per mouse DLL4^+ neutrophils or DLL4^– neutrophils in […] phosphate-buffered saline (PBS) immediately after abdominal closure in both the 20-hour experiments and the survival study. Vehicle groups received an equivalent volume of PBS, while treatment groups received NDI 10 mg/kg in […] PBS via retro-orbital injection after CLP. […]

[1] = system: DLL4 expression on WT BMDNs; assay: Frequency of DLL4^+ neutrophils (Ly6G^+DLL4^+), WT mouse BMDNs, flow cytometry; format: cell-based; conditions: for percentage of DLL4^+ neutrophils (Figure 1C): eCIRP 1 μg/mL, WT BMDNs 1 × 10^6/mL
Description: Mice were anesthetized by 2% isoflurane inhalation, and the femora and tibiae were dissected. The bone marrow was flushed out with calcium- and magnesium-free HBSS using a 25-gauge needle into a Petri dish. Suspensions of cells were filtered through a 70 μm cell strainer (Corning), and bone marrow–derived neutrophils (BMDNs) were purified by negative selection using the EasySep mouse neutrophil enrichment kit (catalog 19762, STEMCELL Technologies). The purity of the sorted neutrophils was assessed by staining of the cells with APC-Ly6G antibody (clone 1A8, BioLegend) using a BD LSRFortessa flow cytometer (BD Biosciences).
In the time course experiments, BMDNs (1 × 10^6) were stimulated with eCIRP (1 μg/mL) for 2, 4, 6, and 12 hours. In the dose-response experiments, BMDNs (1 × 10^6) were treated with 0, 0.2, 0.5, or 1.0 μg/mL eCIRP for 12 hours. Single-cell suspensions were then stained with APC-conjugated anti–mouse Ly6G (clone 1A8, catalog 127614, BioLegend) and PE-conjugated anti-DLL4 (clone HMD4-1, catalog 130807, BioLegend), and analyzed by flow cytometry (BD LSRFortessa, BD Biosciences) to detect DLL4^+ neutrophils (Ly6G^+DLL4^+). Unstained cells were used to set voltages, and single-color controls were applied for compensation adjustment. Two hundred fifty microliters of whole blood obtained from sham, CLP, and PBS- or NDI-treated mice was taken into Falcon 15 mL conical tubes, and 5 mL red blood cell (RBC) lysis buffer (BD Biosciences) was added. After 1–2 minutes of incubation at room temperature, the samples were centrifuged at 300g for 10 minutes. Supernatants were aspirated, and the cell pellet was washed by suspension of the cells in 5 mL fluorescence-activated cell sorting (FACS) buffer containing 2% fetal bovine serum and centrifuged at 300g for 10 minutes. The supernatant was discarded, and the cell pellet was dissolved in […] FACS buffer. Lung tissues were finely diced using a sterile surgical blade and suspended in Ca^++- and Mg^++-free Hanks balanced salt solution (HBSS; Corning). Tissue digestion was performed in HBSS containing 100 U/mL of collagenase I (Worthington Biochemical) and 20 U/mL DNase I (Worthington Biochemical) at 37°C for 30 minutes with periodic shaking. Digested tissue fragments were crushed with a 10 mL syringe plunger and passed through a 70 μm cell strainer (Corning). Lysis of RBCs in lung cell suspensions was conducted using RBC lysis buffer (BD Biosciences). The isolated lung cells were counted using a microscope (Eclipse TS100, Nikon). To detect mouse DLL4^+ neutrophils, single-cell suspensions were stained with anti-mouse APC-Ly6G (clone 1A8, catalog 127614, BioLegend) and PE-DLL4 (clone HMD4-1, catalog 130807, BioLegend) and assessed for the detection of DLL4^+ neutrophils (Ly6G^+DLL4^+) by flow cytometry (BD LSRFortessa, BD Biosciences). Unstained cells were used to establish the flow cytometer voltage setting, and single-color positive controls were used to adjust the compensation. The acquisition was performed on 50,000 events using a BD LSRFortessa flow cytometer (BD Biosciences), and data were analyzed with FlowJo software (Tree Star). BMDNs were stimulated with eCIRP ([…]) for 2 hours. This time point was selected to maximize the viability and functionality of DLL4^+ neutrophils for downstream experiments, given their relatively short lifespan. After stimulation, cells were washed with PBS and resuspended in 1 mL FACS buffer, and DLL4^+ neutrophils (Ly6G^+DLL4^+) and DLL4^– neutrophils (Ly6G^+DLL4^–) were sorted by flow cytometry using a BD FACSAria IIu cell sorter (BD Biosciences).

| Molecule | adverse effects (C57BL/6 mice, CLP sepsis) | percentage of DLL4^+ neutrophils (Figure 1D) ([1]; 0.2 μg/mL rmCIRP, 12 h, WT BMDNs, individual replicates) | percentage of DLL4^+ neutrophils (Figure 1D) ([1]; 0.5 μg/mL rmCIRP, 12 h, WT BMDNs, individual replicates) | increase in DLL4^+ neutrophils compared with baseline ([1]; 1 μg/mL eCIRP, 12 hours) | percentage of DLL4^+ neutrophils (Figure 1D) ([1]; 1 μg/mL rmCIRP, 12 h, WT BMDNs, individual replicates) | frequency of DLL4^+ neutrophils (Figure 1E) ([1]; WT BMDNs, 1 μg/mL eCIRP, 12 h, individual replicates) | percentage of DLL4^+ neutrophils (Figure 1C) ([1]; 2 h, individual replicates) | percentage of DLL4^+ neutrophils (Figure 1C) ([1]; 4 h, individual replicates) | percentage of DLL4^+ neutrophils (Figure 1C) ([1]; 6 h, individual replicates) | percentage of DLL4^+ neutrophils (Figure 1C) ([1]; 12 h, individual replicates) | effect on frequency of DLL4^+ neutrophils ([1]; mouse BMDNs) |
| --- | --- | --- | --- | --- | --- | --- | --- | --- | --- | --- | --- |
| ECAGSPCHNGGTCEDGI [NDI] | lack of observed adverse effects in treated animals | – | – | – | – | – | – | – | – | – | – |
| eCIRP: extracellular cold-inducible RNA-binding protein; recombinant murine, produced in our laboratory (protein, UniProt P60824 1-172, looked up) Cold-inducible RNA-binding …: MASDEGKLFVGGLSFDTNEQALEQVFSKYGQISEVVVVKDRETQRSRGFGFVTFENIDDAKDAMMAMNGKSVDGRQIRVDQAGKSSDNRSRGYRGGSAGGRGFFRGGRSRGRGFSRGGGDRGYGGGRFESRSGGYGGSRDYYASRSQGGSYGYRSSGGSYRDSYDSYATHNE | – | 6.79% and 7.39% and 5.07% and 2.01% and 1.58% and 2.94% | 9.65% and 8% and 2.23% and 3.04% and 4.63% and 3.6% | greater than 10 fold | 9.46% and 10.2% and 10.3% and 9.59% and 14.64% and 11.2% and 19.6% | 10.6% and 7.8% and 13.4% and 4.22% and 4.99% | 2.37% and 2.69% and 2.61% and 1.38% and 2.29% and 2.02% | 2.2% and 3.33% and 2.32% and 3.85% and 1.73% and 1.34% | 5.6% and 3.69% and 4.86% and 3.28% and 2.75% and 2.78% | 25.8% and 23.2% and 5.76% and 10.3% and 13.1% and 19.7% | significantly increased the frequency (percentage) of DLL4^+ neutrophils in a time- and dose-dependent manner |
